Primed or numbered codes have the meaning given here. The star is where a group is joined. Dabcyl′ = 4-((4-(dimethylamino)phenyl)azo)benzoyl, CN(C)c1ccc(/N=N/c2ccc(C(=O)*)cc2)cc1

By Kd is commonly meant a measure of binding affinity in units of concentration. Higher therefore signals lower affinity.

The target in assay [1] is T1, ERK2 (UniProt P28482 1-360).
T1 construct: The in vitro activity assay used active, phosphorylated pp-ERK2 (1 nM); also called extracellular signal-regulated kinase 2; MAPK; source: recombinantly expressed in Escherichia coli, purified according to Garai et al
Put plainly: fluorescence polarisation; competitive: complex of the MAPK with 50 nM Cf-RHDF at 60-80% complex formation titrated with increasing unlabeled peptide; 20 mM Tris pH 8.0, 100 mM NaCl, 0.05% Brij35, 2 mM TCEP; 384-well black plates; triplicates; constants are called Kd in Table 1 and Ki in the methods. The settings on record: both partners purified. (In general: Fluorescence polarisation rises when a labelled molecule tumbles more slowly, as on binding a larger partner.)

Assay [2] deals with T2, p38α (UniProt Q16539 1-360).
T2 construct: The in vitro activity assay used active, phosphorylated pp-p38α (1 nM); source: recombinantly expressed in Escherichia coli, purified according to Garai et al
Described as above. The settings on record: both partners purified.

T1 sequence (P28482 whole entry): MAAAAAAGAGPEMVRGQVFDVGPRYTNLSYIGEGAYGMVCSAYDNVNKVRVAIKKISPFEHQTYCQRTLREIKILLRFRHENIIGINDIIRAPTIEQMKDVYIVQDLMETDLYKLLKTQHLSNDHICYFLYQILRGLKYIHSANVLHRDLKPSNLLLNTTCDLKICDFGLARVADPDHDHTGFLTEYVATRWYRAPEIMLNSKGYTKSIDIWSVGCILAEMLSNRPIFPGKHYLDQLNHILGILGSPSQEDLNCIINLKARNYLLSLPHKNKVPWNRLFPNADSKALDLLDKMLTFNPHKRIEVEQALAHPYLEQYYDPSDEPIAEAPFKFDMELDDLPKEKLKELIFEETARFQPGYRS
T2 sequence (Q16539 whole entry): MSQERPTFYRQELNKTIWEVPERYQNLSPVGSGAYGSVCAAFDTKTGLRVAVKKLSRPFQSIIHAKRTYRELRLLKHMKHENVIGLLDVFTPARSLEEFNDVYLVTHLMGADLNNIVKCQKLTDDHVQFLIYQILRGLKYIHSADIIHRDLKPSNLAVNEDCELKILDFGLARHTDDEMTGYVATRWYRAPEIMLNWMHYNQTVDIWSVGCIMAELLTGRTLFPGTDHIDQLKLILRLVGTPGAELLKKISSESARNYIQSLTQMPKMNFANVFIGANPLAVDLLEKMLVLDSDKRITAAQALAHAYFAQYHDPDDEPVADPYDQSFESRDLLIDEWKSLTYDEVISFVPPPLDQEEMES

B1: H-KKPPWLKLDI-NH2 (peptide 4) (peptide)
peptide: H-KKPPWLKLDI-NH2
notes: RHDF1 docking motif without the flanking regions SLQR (N-terminus) and PS (C-terminus); also called short peptide; truncated construct; source: synthetic peptide (Fmoc/tBu solid phase on Rink-amide MBHA resin, RP-HPLC purified)
As for B1, the dissociation constant (Kd) in assay [1] is 15 µM.

B2: H-RRPPWLRLDI-NH2 (peptide 5) (peptide)
peptide: H-RRPPWLRLDI-NH2
notes: source: synthetic peptide (Fmoc/tBu solid phase on Rink-amide MBHA resin, RP-HPLC purified)
On to B2, for which the Kd in assay [1] worked out at 19.5 µM; in assay [2], 10 µM.

B3: H-RRPPWLRLDIRR-NH2 (peptide 6) (peptide)
peptide: H-RRPPWLRLDIRR-NH2
notes: peptide 5 extended at the C-terminus by two Arg; source: synthetic peptide (Fmoc/tBu solid phase on Rink-amide MBHA resin, RP-HPLC purified)
Molecule B3 registered a Kd in assay [1] of 5.2 µM.

B4: Dabcyl-RRRPPWLRLDIRRK-NH2 (peptide 10) (peptide)
peptide: {Dabcyl′}-RRRPPWLRLDIRRK-NH2
SMILES: CC[C@H](C)[C@H](NC(=O)[C@H](CC(=O)O)NC(=O)[C@H](CC(C)C)NC(=O)[C@H](CCCNC(=N)N)NC(=O)[C@H](CC(C)C)NC(=O)[C@H](Cc1c[nH]c2ccccc12)NC(=O)[C@@H]1CCCN1C(=O)[C@@H]1CCCN1C(=O)[C@H](CCCNC(=N)N)NC(=O)[C@H](CCCNC(=N)N)NC(=O)[C@H](CCCNC(=N)N)NC(=O)c1ccc(/N=N/c2ccc(N(C)C)cc2)cc1)C(=O)N[C@@H](CCCNC(=N)N)C(=O)N[C@@H](CCCNC(=N)N)C(=O)N[C@@H](CCCCN)C(N)=O
notes: peptide 8 with a Lys at the C-terminus and a Dabcyl group on the N-terminus; also called Dabcyl-containing peptide (unlabelled); source: synthetic peptide (Fmoc/tBu solid phase on Rink-amide MBHA resin, RP-HPLC purified)
Consider B4, for which the Kd was 4.6 µM in assay [1] and 1 µM in assay [2].

B5: H-SLQRKKPPWLKLDIPSC-NH2 (peptide 1, RHDF1 linear binding motif) (peptide)
peptide: H-SLQRKKPPWLKLDIPSC-NH2
notes: C-terminal cysteine that follows the 16 residues of the motif in the printed peptide; not part of the motif as printed in the text; The added Cys probably serves for conjugation (cysteine containing peptides were joined to chloroacetylated peptides); also called original peptide; source: synthetic peptide (Fmoc/tBu solid phase on Rink-amide MBHA resin, RP-HPLC purified)
Consider B5, for which the Kd was determined as 1.8 µM in assay [1] and 1.1 µM in assay [2].

B6: H-RRRPPWLRLDIRR-NH2 (peptide 8) (peptide)
peptide: H-RRRPPWLRLDIRR-NH2
notes: peptide 6 with one more Arg at the N-terminus; source: synthetic peptide (Fmoc/tBu solid phase on Rink-amide MBHA resin, RP-HPLC purified)
Consider B6, for which the values for the Kd in assay [1] and in assay [2] were 1.3 µM and 1.4 µM, respectively.

Source of the values: publication PMC8281026, “Peptide Based Inhibitors of Protein Binding to the Mitogen-Activated Protein Kinase Docking Groove” (Frontiers in Molecular Biosciences, 2021).
